In article PMC5101480 (Scientific Reports, 2016):
Values belong to the molecule of their own block, whether it stands above or below them.

B1: Rpn13 extreme C-terminal pentapeptide (DMSLD; residues 403-407) (peptide)
peptide: DMSLD
notes: also called DMSLD peptide; DMSLD pentapeptide; source: synthetic peptide, bought: Alta BioScience (Birmingham, UK)
B2: Rpn13_260-402: Rpn13 construct devoid of the C-terminal pentapeptide (residues 260–402) (protein)
chain: QPIQLSDLQSILATMNVPAGPAGGQQVDLASVLTPEIMAPILANADVQERLLPYLPSGESLPQTADEIQNTLTSPQFQQALGMFSAALASGQLGPLMCQFGLPAEAVEAANKGDVEAFAKAMQNNAKPEQKEGDTKDKKDEEE
modifications: left off: thioredoxin A (TxA), N-terminal, cleaved | His6, N-terminal, cleaved
B3: TPR domain of SGTA (small, glutamine-rich, tetratricopeptide repeat protein alpha), residues 84-211 (domain or fragment, human, UniProt O43765 84-211, looked up)
chain: SEEDSAEAERLKTEGNEQMKVENFEAAVHFYGKAIELNPANAVYFCNRAAAYSKLGNYAGAVQDCERAICIDPAYSKAYGRMGLALSSLNKHVEAVAYYKKALELDPDNETYKSNLKIAELKLREAPS
notes: human SGTA, central TPR domain, residues 84-211; 15N-labelled (M9 medium) where it was the observed species in NMR; unlabelled otherwise; not shown: thioredoxin A (TxA), N-terminal, cleaved; His6, N-terminal, cleaved

Key:
SGTA-V5 = SGTA-V5 (UniProt O43765)
SGTA-V5, sequence (O43765 whole entry): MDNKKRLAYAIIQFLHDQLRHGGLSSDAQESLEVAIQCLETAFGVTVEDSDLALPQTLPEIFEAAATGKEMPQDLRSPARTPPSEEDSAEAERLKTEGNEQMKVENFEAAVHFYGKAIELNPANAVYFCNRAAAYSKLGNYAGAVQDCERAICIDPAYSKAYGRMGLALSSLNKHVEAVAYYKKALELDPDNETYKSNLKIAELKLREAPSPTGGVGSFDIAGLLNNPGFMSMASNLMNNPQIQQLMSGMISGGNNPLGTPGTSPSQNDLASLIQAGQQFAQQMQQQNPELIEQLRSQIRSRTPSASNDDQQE

[1] = target: B3; assay: ITC; SGTA_TPR at 1 mM injected into Rpn13 or DMSLD peptide at 50 μM in the cell; 25 °C, 10 mM potassium phosphate pH 6.0, 100 mM NaCl, 250 μM TCEP; one site assumed (n = 1); conditions: both partners purified
[2] = target: T1, TPR domain of SGTA (SGTA_TPR) (Homo sapiens, UniProt O43765); assay: Solution NMR CSP titration of unlabelled ligand into 15N-labelled SGTA_TPR; assay type: binding; conditions: unlabelled ligand into 15N-labelled SGTA_TPR; pH 6.0, 25 °C; Rpn13_260-407 up to 8 equivalents, Rpn13_260-402 up to 6-fold molar excess
T1 construct: thioredoxin A (TxA) fusion (N, cleaved yes); hexahistidine tag (N, cleaved yes); made in house; host or cells: E. coli BL21(DE3) Rosetta
Protocol: In order to understand molecular details underlying the interaction between SGTA and Rpn13, solution NMR studies were carried out on excised domains of SGTA and Rpn13 guided by earlier mapping studies. Reciprocal chemical shift perturbation (CSP) experiments were performed by titrating unlabelled Rpn13 C-terminal domain (residues 260–407; hereafter described as Rpn13_260-407) into ^15N-labelled TPR domain of SGTA (residues 84–211; hereafter referred to as SGTA_TPR) and vice versa. Assignments of backbone amide resonances were obtained from the BMRB (accession numbers 5709 and 17286, for SGTA_TPR and Rpn13_260-407, respectively). The ^1H-^15N HSQC spectra of both SGTA_TPR and Rpn13_260-407 show binding in a fast exchange regimen (Figs 1A and 2A). […] Binding was further confirmed by size-exclusion chromatography (SEC) and isothermal titration calorimetry (ITC) (Fig. 1C,D). […] ITC experiments yield a dissociation constant of 16.1 ± 1.4 μM in keeping with the value obtained from NMR.
Protein samples at concentrations between 300 μM and 1 mM were prepared in 10% D2O (Sigma Aldrich), 10 mM potassium phosphate pH 6.0, 100 mM NaCl and 250 μM TCEP buffer (with 10 μM DSS for proton chemical shift referencing). All NMR experiments were acquired in 5 mm NMR tubes at 25 °C on 500 MHz and 700 MHz Bruker Avance spectrometers equipped with cryoprobes and operated by the TopSpin 3.1 software package. All NMR spectra were processed with TopSpin and analysed with CcpNMR Analysis[35]. Proteins used for NMR titrations were dialysed overnight against the same buffer (10 mM potassium phosphate pH 6.0, 100 mM NaCl and 250 μM TCEP) and mixed in different molar ratios, with the concentration of the labelled protein maintained constant. ^1H-^15N HSQC experiments were recorded for each titration point at 25 °C. Chemical shift perturbation (CSP) values were calculated for each amide signal using the following formula: […]
where Δδ1H and Δδ15N are the chemical shift differences for the same amide in its free and bound state (δfree−δbound) and for proton and nitrogen chemical shift values respectively. […]

[3] = target: T1, TPR domain of SGTA (SGTA_TPR); assay: Isothermal titration calorimetry (ITC), SGTA_TPR titrated into Rpn13 or DMSLD peptide; assay type: binding; conditions: 20 injections of 2 μL of 1 mM SGTA_TPR into 50 μM Rpn13_260-402, pH 6.0, 25 °C
Protocol: ITC experiments were performed using an ITC-200 microcalorimeter from Microcal (GE Healthcare) at 25 °C following the standard protocol as reported previously. Proteins or peptide samples were prepared in 10 mM potassium phosphate pH 6.0, 100 mM NaCl, 250 μM TCEP. In each titration, either 40 injections of 1 μL or 20 injections of 2 μL of SGTA_TPR each, at a concentration of 1 mM, were added to a sample of Rpn13 or the Rpn13 derived DMSLD peptide at a concentration of 50 μM in the reaction cell. A nonlinear least-squares minimization algorithm was applied to integrated heat data obtained for the titrations, corrected for heats of dilution, in order to fit the experimentally obtained values to a theoretical titration curve. This was performed using the MicroCal-Origin 7.0 software package. ΔH (reaction enthalpy change in kcal/mol), Kb (equilibrium binding constant in per molar), and n (molar ratio between the proteins in the complex) were used as fitting parameters. The reaction entropy, ΔS, was calculated using the relationships ΔG = −RT lnKb (R = 8.314 J/(mol K), T 298 K) where ΔG = ΔH − TΔS. Dissociation constants (Kd) have been determined for each interaction. Binding was assumed to be at one site (n = 1), to determine the binding affinity (Kd) and thermodynamic parameters.

[4] = target: T1, TPR domain of SGTA (SGTA_TPR); assay: Size exclusion chromatography (SEC) complex formation with SGTA_TPR; assay type: binding; conditions: mixed in 1:1 molar ratio
Protocol: In order to understand molecular details underlying the interaction between SGTA and Rpn13, solution NMR studies were carried out on excised domains of SGTA and Rpn13 guided by earlier mapping studies. Reciprocal chemical shift perturbation (CSP) experiments were performed by titrating unlabelled Rpn13 C-terminal domain (residues 260–407; hereafter described as Rpn13_260-407) into ^15N-labelled TPR domain of SGTA (residues 84–211; hereafter referred to as SGTA_TPR) and vice versa. Assignments of backbone amide resonances were obtained from the BMRB (accession numbers 5709 and 17286, for SGTA_TPR and Rpn13_260-407, respectively). The ^1H-^15N HSQC spectra of both SGTA_TPR and Rpn13_260-407 show binding in a fast exchange regimen (Figs 1A and 2A). […] Binding was further confirmed by size-exclusion chromatography (SEC) and isothermal titration calorimetry (ITC) (Fig. 1C,D). […]
SGTA_TPR and Rpn13 plasmids were transformed into E. coli BL21(DE3) Rosetta cells, with protein expression induced by adding 0.3–0.5 mM isopropyl-β-D-thiogalactopyranoside (IPTG) to bacterial cultures in LB media at OD600 ≈ 0.8, followed by overnight incubation at 18 °C. […] Proteins were concentrated using Vivaspin concentrators (Sartorius Stedin) and sample purity and homogeneity was assessed by SDS-PAGE, mass spectrometry and NMR. […]

[5] = target: B1; assay: ITC; SGTA_TPR at 1 mM injected into Rpn13 or DMSLD peptide at 50 μM in the cell; 25 °C, 10 mM potassium phosphate pH 6.0, 100 mM NaCl, 250 μM TCEP; one site assumed (n = 1); conditions: both partners purified
[6] = target: T2, Rpn13 C-terminal domain, residues 260-407 (human, UniProt Q16186 260-407); assay: as above; conditions: both partners purified
T2 construct: 15N-labelled where it was the observed species in NMR; unlabelled otherwise; not shown: thioredoxin A (TxA), N-terminal, cleaved; His6, N-terminal, cleaved

[7] = target: T3, spin labelled K398C Rpn13_(260-407) mutant (human, UniProt Q16186 260-407, K398C, paramagnetic MTSL or diamagnetic dMTSL label incorporated via the K398C cysteine); assay: NMR paramagnetic relaxation enhancement; 15N-labelled SGTA_TPR mixed with MTSL or dMTSL labelled K398C Rpn13_(260-407) at a 1:1.2 ratio, 200 μM; 10 mM potassium phosphate pH 6.0, 100 mM NaCl; 1H-15N HSQC; conditions: both partners purified
T3 construct: The paramagnetic and the diamagnetic sample are written as one molecule: the PRE read-out is the ratio of the two; source: E. coli BL21(DE3) Rosetta, purified, then labelled with MTSL or dMTSL; not shown: thioredoxin A (TxA), N-terminal, cleaved; His6, N-terminal, cleaved

[8] = target: T2, Rpn13 C-terminal domain, residues …; assay: NMR titration; 1H-15N HSQC chemical shift perturbation; unlabelled SGTA_TPR (wild type or K160E/R164E) titrated into 15N-labelled Rpn13_(260-407); 25 °C, 10 mM potassium phosphate pH 6.0, 100 mM NaCl, 250 μM TCEP; conditions: both partners purified

fold increase of steady state OP91 level (quantitative western blot) in HeLa TRex Flp-In cells co-expressing SGTA-V5 and Rpn13 (150-402), against the Rpn13 (150-407) control (SGTA-V5): 3 fold
Molecule: FLAG tagged mouse Rpn13 (150-402) (from UniProt Q9JKV1 150-402) (domain or fragment)

Molecule: B1
Kd [1]: 71.9 ± 13.3 µM

Molecule: B2
CSP of SGTA_TPR backbone amide signals, result in words [2]: no perturbation of SGTA_TPR backbone amide signals
ITC binding, result in words [3]: abrogation of binding with SGTA_TPR
ITC binding, result in words ([3]; listed as Rpn13260-402): does not interact
SEC complex formation with SGTA_TPR [4]: no evidence of an interaction

Molecule: B3
dH [5]: -4.97 ± 0.41 kcal/mol
Kd [6]: 16.1 ± 1.4 µM
dH [6]: -3.37 ± 0.08 kcal/mol
binding result [7]: binds
Kd [8]: 3.27 ± 0.87 µM
